Data from the DeepSol protein solubility set.

Assay: soluble on expression in E. coli; label from the status in PepcDB or PDB records

Sequence	soluble on expression in E. coli
GRRPRTAFTQNQIEVLENVFRVNCYPGIDILEDLAQKLNLELDRIQIWFQNRRAKLKRSHRESQFLM	soluble
MSLSAELLLNVTPSETRVAMIEGGILQEIHIEREAKRGIVGNIYKGKVSRVLPGMQAAFVDIGLDKAAFLHASDIVPHTECVAESEKQQFQVRDISELVRQGQDIVVQVVKDPLGTKGARLTTDITLPSRYLVFMPGASHVGVSQRIESEAERERLKKIVSHYCDEHGGFIIRTAAEGANEKELTQDAAFLKRLWSKVIERRSKYKNRSMLYGELGLAQRILRDFVGTELTKILIDSRQEFENLKEFTSEYVPELTAKLELYHGDKPIFDMYDTENEIQRSLERKVELKSGGYLIIDQTEAMTTIDINTGAFVGRRNLEETIFNTNIEATQAIARQLRLRNLGGIIIIDFIDMASDEHRKRVLTSLETALMKDRVKTNINGFTQLGLVEMTRKRTRESIEHVLCSTCPTCEGRGSVKTVETVCFEILREITRVNRAYDADKFVVYASPAVADTLQGEESHALAELEVFIGKEVRIQAEPLYNQEQFDVVMMEGGSHHHHHH	soluble
MAHHHHHHMGKALGMQRAKAQRLRKVVLRGSAAGSRSFLLYAQPTPNMLSETSGAVVDMCTDEFSIDIKEPSPEDAIVVASLTLRKKKMQKWREEKRTAAKPPKRAQSGASTCTLNFNKQETRWPLKISEC	not soluble
MKLLILGNHTCGNRGDSAILRGLLDAINILNPHTEVDVMSRYPVSSSWLLNRPVMGDPLFLQMKQHNSAAGVVGRVKKVLRRRYQHQVLLSRVTDTGKLRNIAIAQGFTDFVRLLSGYDAIIQVGGSFFVDLYGVPQFEHALCTFMAKKPLFMIGHSVGPFQDEQFNQLANYVFGHCDALILRESVSLDLMKRSNITTAKVEHGVDTAWLVDHHTEDFTASYAVQHWLDVAAQQKTVAITLRELAPFDKRLGTTQQVYEKAFAGVVNRILDEGYQVIALSTCTGIDSYNKDDRMVALNLRQHISDPARYHVVMDELNDLEMGKILGACELTVGTRLHSAIISMNFATPAIAINYEHKSAGVMQQLGLPEMAIDIRHLLDGSLQAMVADTLGQLPALNARLSEAVSRERQTGMQMVQSVLERIGEVK	soluble
MRIFLNTVHLFALCAAAAIATEESTTPKPASWKFGTIAGEPDDYTNSTAVQVNNFKECIAKCSAIFDCIIASQKSKSEPCNLFLWNSVTKVKRAESGGEGQTAFRVFTEQPRCKLSMDELLNGKKYQIYKNDTEHYIWTINKTEDGWAMEYSKTILNNIIHCNDPDAYKYPGVRGCYKIVLPFKEDKKWESGMLSYPEAVGNCTLLGGDGLMTIPSSDFASQIKQNQNSTQSSTVYFIGLTRPDDSSNDNWVWTLPDLKIDSSPLPPWSFPPSLNVEAIWAENCALVSIEADPTKSLLHATLCQQWNRMSGYICHFAQ	not soluble
MIYLKSFERNIRLINMKVVYDDVRVLKDIIQALARLVDEAVLKFKQDSVELVALDRAHISLISVNLPREMFKEYDVNDEFKFGFNTQYLMKILKVAKRKEAIEIASESPDSVIINIIGSTNREFNVRNLEVSEQEIPEINLQFDISATISSDGFKSAISEVSTVTDNVVVEGHEDRILIKAEGESEVEVEFSKDTGGLQDLEFSKESKNSYSAEYLDDVLSLTKLSDYVKISFGNQKPLQLFFNMEGGGKVTYLLAPKV	soluble
KEQILSSEQLARKMMLELGDKKQEHLVAIYMDTQNRIIEQRTIFIGTVRRSVAEPREILHYACKNMATSLIIIHNHPSGSPKPSESDLSFTKKIKRSCDHLGIVCLDHIIVGKNKYYSFREEADIL	soluble
MTQCYAEITGWGKCLPPATLSNHDLSTFLDTSDEWIQSRTGIEQRRISHVNTSDLATVAAQHAIACAGVSVEEIDLIIVATCSPDSLIPNIASRVQQNLGIPSAAAFDLNAACTGFLYGLETATRLMQASHYRHALVIGAERLSFYLDWTKRDTAVLFGDGAGAVVLSKTEQKVGLQDAQIGCDAQGRDILAVPKFGTAMDRFDADNGYWAFDFVGKEIFKRAVRGMGAAAQQVLARSGLSTEEIDVVIPHQANIRIIQTLCDLAGIAQDKAFVNIHRYGNTSAATVPIALCEALEQGKIKPHDDLLVAAFGAGLTWGAGHIRWGERITPLGKSDAQLPSCDHTALDLLSKAIEHCKRHQSE	not soluble
GPGSMLDRLSCLGPRTKRWLHNNLRGRYVRVCTREQHSRKQLTPAGGPQGSALRPQLFLHCVDDLLRRMDNIYSASALMYADDLTVVASGAGTHACAAAMPPALSLITAWAAEHNHKINVDKSEAALFHISSHTRSDDEMVNLHLGNGKLRIQSRPVRLLDTTMDQLLNFDYARFHRFK	not soluble
MSLAKVFTQEEREKIKGQVVELVRQSGRETLRQLEVKTGATRYLMSVLARELVASGDVYNSGYGLFPSEQARKDWQNARKKLSRAKVKKPAVVDPDLIWSSPDGEIRRYDSRLNIICRECRKSEAMQRVLAFYQGNFQEAVLEGHHHHHH	not soluble
MGSDKIHHHHHHMFVDTTLRDGHQSLIATRMRTEDMLPALEAFDRMNFHSMEVWGGATFDVAVRFLNENPWERLKKIREGLKNTKIQMLLRGQNLVGYRHYADDVVELFIKKVAEYGLDIIRIFDALNDERNLQKSIEESKKHGLHVQVAISYTVSPVHTLDYYLDFARKLLDMGVDSICIKDMAGLLTPKRAYELVRALKEKFGVPVEVHSHCTTGFAPLAYQAAYEAGADFFDTAISPFSMGTSQPTFETMYYAFRGNGKEDFDREALKFLVDHFTKVRMKYIEYDVGMKYPDSRIIFSQIPGGMYSNLLKQLKEQRMEHLLDKVLEEVPRVQKDLGYPPLVTPTSQIVGVQAFLNVVYGRYERITNETRNYVKGLYGRPPAPIDPELMRKILGDEKPIDCRPADLLEPELDKTRKELGILVETDEDLLIAVILGEVGKKFLRKKYEEKIGVDFNYLESLSDFTDDMPVYPV	not soluble
MSVDYPRDLIGYGSNPPHPHWPGKARIALSFVLNYEEGGERNILHGDKESEAFLSEMVSAQPLQGERNMSMESLYEYGSRAGVWRILKLFKAFDIPLTIFAVAMAAQRHPDVIRAMVAAGHEICSHGYRWIDYQYMDEAQEREHMLEAIRILTELTGERPLGWYTGRTGPNTRRLVMEEGGFLYDCDTYDDDLPYWEPNNPTGKPHLVIPYTLDTNDMRFTQVQGFNKGDDFFEYLKDAFDVLYAEGAEAPKMLSIGLHCRLIGRPARLAALQRFIEYAKSHEQVWFTRRVDIARHWHATHPYTGAAK	soluble
MDDLASQSFPEPERAIMKATYQVLCEYGYADLTIQQIADEYGKTTTAVHYHCDTKNKLLTAFLDYLLEELADSVHNIRTTNPENRLKFLLDELLVKSKNEPVLSIALLEMQSQTPYKEPFRERFKQMAVVNRQTELDFTVSETA	not soluble
MRILHTSDWHLGQNFYSKSREAEHQAFLDWLLETAQTHQVDAIIVAGDVFDTGSPPSYARTLYNRFVVNLQQTGCHLVVLAGNHDSVATLNESRDIMAFLNTTVVASAGHAPQILPRRDGTPGAVLCPIPFLRPRDIITSQAGLNGIEKQQHLLAAITDYYQQHYADACKLRGDQPLPIIATGHLTTVGASKSDAVRDIYIGTLDAFPAQNFPPADYIALGHIHRAQIIGGMEHVRYCGSPIPLSFDECGKSKYVHLVTFSNGKLESVENLNVPVTQPMAVLKGDLASITAQLEQWRDVSQEPPVWLDIEITTDEYLHDIQRKIQALTESLPVEVLLVRRSREQRERVLASQQRETLSELSVEEVFNRRLALEELDESQQQRLQHLFTTTLHTLAGEHEA	soluble
MGSDKIHHHHHHMITRIEAYKYRCFNTLDLALEQQHVFAGSNGSGKTTLLDIPALFGDLLNMSDINDAFFKPTNGRERARAESAKEVVHQLRGEYFILALEVSLPPSIIEELLRGASDAWQSKFQKSELRPDTARYEISFRINQDKFQVTEEHLTLFPNNELRPEHGMGLIGVDDFRRSAPWFKVLSRSLGTKVKYQAEYQAGKSSILEFGLRDNQLALAALPADHDLYPAALWLQEFLIQGSHCYEPQWPAMRLAASPRDKHAFKADGSSLPWQVHALQQSDPEGLNEWLELVQMALPSIAKIVAKQRIDDSFCYLEVTYSNGMVVPSSGLSHGTLHILALTIIPYLQNAPKIITLEEPENGIHPKAIDAVLEALKLTSDTQLWLSTHSPVVLANTEVEQIITMRFNQDGATEVLKGHEHPRLKTWKGEVDLGTLFAAGVLE	not soluble
MKLTGQAIDGFLRKPDPKIRCVLVYGPDEGLVRERLEQLARTVVADPKDPFRITDLSGDDLRADPARLADEAAALAFGGGRRLVRLRQMTDQHAPRLKAFVEAPVGEALVLVQGGDLTARSALRKLFEGASAAAALPCYADEGRSLETLVRATLAEARLAAAPEVIDYLVANLGGDRGVSRSELAKLVTYCGKATSVSLDDALACVGDSAQIGLDMLTNAVAEGDSATALRALDRLGQEGMATVALLRGLTRHFTRLHLVAGLIAGGTSVDQALAALKPPVMFKLAPRFRSQVQRWSAERLAQALDLLLDAEIDAKSSGLPERALVERLLLRLARGAKTASRLEHHHHHH	not soluble
MSLPFPTIPPIAGVEIATGRAGFYKHEREDLLLMRFAEGTSAAGVFTRHGVGSAPVDWCKRQLAATGGADVRALVVNAGCANSFTGKPGADAVRRVATAVGKRFDCRQRDVMMASTGVIGVILDDSKITARLPEVESRLKADAWAEAGRAIMTTDTFPKGAYATAVIDGHEVKIAGIAKGSGMIAPDMATMLAFVATDAAIAPAALQTLVSLYTRTTFNCVTVDGDRSTNDTLLLFATGQSGAPKIHRAGDKRLADFREKLEGVLLDLALQLVKDGEGATKFVKITVNGAESPASARKIARTIAESPLVKTAFAGEDANWGRIVMAVGRADEPVAREKISVKFGDLYAARDGLISAEYDEAKMSAYVKNQAFEVSVDVGVGRGSATVWTCDLTKQYVAINGDYRSEGHHHHHH	not soluble
MGSDKIHHHHHHMTKEQSYPPTCIDCGTQNCKFKERTYPEFCLTTHLEQEDLEWALKQYNDNNKIMAASAEVEYEGYCRLTRVEEIMTFARKMGYKKLGIAYCIGLVNEARIFARILRANGFEVYSVICKVAGIAKSSIGIPKECEKIGAAMCNPILQARLLNQAYTELNVVIGLCVGHDSLFYKYSNAYTTTLVTKDRVTGHNPAAALYTANSYYRKKLMPEGEQSK	not soluble
MADEINEIREEQEQLAPFDPSKKKKKKKVVIQEPVEDLAESSQTEKSDSLPVNDGLESSFTGMKKKKKKPTESSLLNNESVDAGEDLDEIANDEQEGEEGIVLQQRYPWEGSERDYIYDELLGRVFNILRENNPELAGDRRRTVMRPPQVLREGTKKTVFVNFMDLCKTMHRQPDHVMQYLLAELGTSGSLDGQQRLVVKGRFAPKNFEGILRRYITDYVICLGCKSPDTILSKENRLFFLRCEKCGSQRSVAPIKTGFVARVSRRKT	soluble
MYALFLLASLLGAALAGPVLGLKECTRGSAVWCQNVKTASDCGAVKHCLQTVWNKPTVKSLPCDICKDVVTAAGDMLKDNATEEEILVYLEKTCDWLPKPNMSASCKEIVDSYLPVILDIIKGEMSRPGEVCSALNLCESLQKHLAELNHQKQLESNKIPELDMTEVVAPFMANIPLLLYPQDGPRSKPQPKDNGDVCQDCIQMVTDIQTAVRTNSTFVQALVEHVKEECDRLGPGMADICKNYISQYSEIAIQMMMHMQPKEICALVGFCDEVKEMPMQTLVPAKVASKNVIPALELVEPIKKHEVPAKSDVYCEVCEFLVKEVTKLIDNNKTEKEILDAFDKMCSKLPKSLSEECQEVVDTYGSSILSILLEEVSPELVCSMLHLCSGTRLPALTVHVTQPKDGGFCEVCKKLVGYLDRNLEKNSTKQEILAALEKGCSFLPDPYQKQCDQFVAEYEPVLIEILVEVMDPSFVCLKIGACPSAHKPLLGTEKCIWGPSYWCQNTETAAQCNAVEHCKRHVWN	soluble
